Each block holds one molecule with its values, some of them ahead of it. Non-standard residues stand in square brackets, D forms with d. Residues, ends and D or L forms follow the SMILES beside them. No end group written: not given here. *: point of attachment. Benzoyl(4-octyl) = CCCCCCCCc1ccc(C(=O)*)cc1; pT = C[C@@H](OP(=O)(O)O)[C@H](N)C(=O)O
Experiments:
[1] = molecular target: T1, PLK3 PBD (335–646) (Homo sapiens, UniProt Q9H4B4); assay: Fluorescence polarization competitive binding assay, PLK3 PBD
T1 sequence (Q9H4B4 335-646): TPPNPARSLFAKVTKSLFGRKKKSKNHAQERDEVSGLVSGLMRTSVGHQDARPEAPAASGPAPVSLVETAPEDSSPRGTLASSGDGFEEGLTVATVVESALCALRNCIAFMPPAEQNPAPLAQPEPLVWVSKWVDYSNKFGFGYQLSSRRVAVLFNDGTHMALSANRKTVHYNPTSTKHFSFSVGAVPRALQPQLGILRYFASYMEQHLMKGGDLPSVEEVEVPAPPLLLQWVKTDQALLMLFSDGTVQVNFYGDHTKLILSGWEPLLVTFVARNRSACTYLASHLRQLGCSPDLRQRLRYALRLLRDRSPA

[2] = molecular target: PLK1 PBD (367–603) (Homo sapiens, UniProt P53350); assay: Fluorescence polarization competitive binding assay, PLK1 PBD; details: for Selectivity Index: PLK1 vs PLK3 PBD, accounting for 5-fold difference in tracer affinity
[3] = molecular target: T2, PBIP phosphopeptide 5 (Homo sapiens); assay: fluorescence polarization competition
T2 chain: Ac-LHS[pT]AI

[4] = molecular target: T3, PLK3 consensus peptide 7; assay: fluorescence polarization competition
T3 chain: GPLATS[pT]PKNG

[5] = molecular target: T4, PBIP phosphopeptide 6 (Homo sapiens); assay: fluorescence polarization competition
T4 chain: Ac-PLHS[pT]A

[6] = molecular target: T5, chimeric peptide 9; assay: fluorescence polarization competition
T5 chain: Ac-PLHS[pT]PKNG

[7] = molecular target: T6, chimeric peptide 8; assay: fluorescence polarization competition
T6 chain: GPLATS[pT]PNGL

[8] = molecular target: T7, FLIP 19; assay: fluorescence polarization competition
T7 chain: {4‑butylbenzoyl}-S[pT]PNGL

[9] = molecular target: T8, Cdc25C phosphopeptide 1 (Homo sapiens); assay: fluorescence polarization competition
T8 chain: LLCS[pT]PNGL

[10] = molecular target: T9, PBIP phosphopeptide 4 (Homo sapiens); assay: fluorescence polarization competition
T9 chain: Ac-PLHS[pT]AI

[11] = molecular target: T10, FLIP 21; assay: fluorescence polarization competition
T10 chain: {Benzoyl(4-octyl)}-S[pT]PNGL

[12] = molecular target: T11, chimeric peptide 3; assay: fluorescence polarization competition
T11 chain: Ac-PLHS[pT]PNGL

[13] = molecular target: T12, PLK3 fluorescein tracer phosphopeptide (also: fluorescein label, place not given here); assay: fluorescence polarization
T12 chain: GPLATS[pT]PKNG

PLK1 PBD (367–603), sequence (P53350 367-603): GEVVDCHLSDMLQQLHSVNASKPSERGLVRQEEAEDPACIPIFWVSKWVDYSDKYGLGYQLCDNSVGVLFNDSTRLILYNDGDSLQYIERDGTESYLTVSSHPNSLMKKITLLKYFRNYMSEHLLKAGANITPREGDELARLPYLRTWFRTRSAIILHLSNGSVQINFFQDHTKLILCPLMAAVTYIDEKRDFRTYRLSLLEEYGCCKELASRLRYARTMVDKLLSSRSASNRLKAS

Molecule: CC(C)C[C@H](NC(=O)CNC(=O)[C@H](CC(N)=O)NC(=O)[C@@H]1CCCN1C(=O)[C@@H](NC(=O)[C@H](CO)NC(=O)[C@H](CS)NC(=O)[C@H](CC(C)C)NC(=O)[C@@H](N)CC(C)C)[C@@H](C)OP(=O)(O)O)C(=O)O [Compound 1, LLCS[pT]PNGL] (H-LLCS[pT]PNGL-OH)
IC50 [1]: > 600 µM

Selectivity Index [2]: 21,133
Molecule: CC[C@H](C)[C@H](NC(=O)[C@H](C)NC(=O)[C@@H](NC(=O)[C@H](CO)NC(=O)[C@H](Cc1c[nH]cn1)NC(=O)[C@H](CC(C)C)NC(=O)[C@@H]1CCCN1C(C)=O)[C@@H](C)OP(=O)(O)O)C(=O)O [Compound 4, Ac-PLHS[pT]AI] (Ac-PLHS[pT]AI-OH)

PLK3 PBD FP IC50 ([1]; competition with fluorescein tracer GPLATS[pT]PKNG, maximum 600 μM tested): lost all detectable affinity
Molecule: CC[C@H](C)[C@H](NC(=O)[C@H](C)NC(=O)[C@@H](NC(=O)[C@H](CO)NC(=O)[C@H](Cc1c[nH]cn1)NC(=O)[C@H](CC(C)C)NC(C)=O)[C@@H](C)OP(=O)(O)O)C(=O)O [Compound 5, Ac-LHS[pT]AI] (Ac-LHS[pT]AI-OH)

Selectivity Index [2]: 20,906
Molecule: CC(=O)N1CCC[C@H]1C(=O)N[C@@H](CC(C)C)C(=O)N[C@@H](Cc1c[nH]cn1)C(=O)N[C@@H](CO)C(=O)N[C@H](C(=O)N1CCC[C@H]1C(=O)N[C@@H](CCCCN)C(=O)N[C@@H](CC(N)=O)C(=O)NCC(=O)O)[C@@H](C)OP(=O)(O)O [Compound 9, Ac-PLHS[pT]PKNG] (Ac-PLHS[pT]PKNG-OH)

PLK1 PBD FP IC50 ([2]; competition with fluorescein tracer MAGPMQS[pT]PLNGAKK, maximum 600 μM tested): almost complete loss of binding
Molecule: LLCSTPNGL [Compound 2]

IC50 [3]: > 600 µM | IC50 [4]: 2.2 µM | IC50 [5]: > 600 µM | IC50 [6]: 134 µM | IC50 [7]: 6.3 µM | IC50 [8]: > 600 µM | IC50 [9]: > 600 µM | IC50 [10]: 270 µM | IC50 [11]: 149 µM | IC50 [12]: 164 µM | Kd [13]: 0.0272 µM
B1: PLK3 PBD 335-646 (protein)
chain: TPPNPARSLFAKVTKSLFGRKKKSKNHAQERDEVSGLVSGLMRTSVGHQDARPEAPAASGPAPVSLVETAPEDSSPRGTLASSGDGFEEGLTVATVVESALCALRNCIAFMPPAEQNPAPLAQPEPLVWVSKWVDYSNKFGFGYQLSSRRVAVLFNDGTHMALSANRKTVHYNPTSTKHFSFSVGAVPRALQPQLGILRYFASYMEQHLMKGGDLPSVEEVEVPAPPLLLQWVKTDQALLMLFSDGTVQVNFYGDHTKLILSGWEPLLVTFVARNRSACTYLASHLRQLGCSPDLRQRLRYALRLLRDRSPA

From PMC7703809 (ChemMedChem, 2020)
